Source: US20220332835A1 (SHANGHAITECH UNIVERSITY, published 2022)
Positions count from the first letter of the chain named. One block for each binder: values may come before it.

Key:
[1] = target: pepN48 (peptide of the 48 N-terminal extracellular amino acids of human CXCR2) (human); test: SPR, Biacore
[2] = target: hCXCR2-mCherry (human CXCR2 fused with mCherry, on U2OS cells) (human) (UniProt P25025); test: flow cytometry, U2OS cells with hCXCR2-mCherry (ECD-A axis), antibody staining on the FITC-A axis; other quadrants UL 1.80%, LL 33.80%, LR 18.24%
rbCXCR2-mCherry = target: T1, rbCXCR2-mCherry (rabbit, UniProt P35344 1-358); test: FACS on transfected U2OS cells
T1 construct: whole, on cells; Overexpressed in U2OS cells; also called rabbitCXCR2; CXCR2 of rabbit; not shown: mCherry fluorescent tag
T1 sequence (looked up): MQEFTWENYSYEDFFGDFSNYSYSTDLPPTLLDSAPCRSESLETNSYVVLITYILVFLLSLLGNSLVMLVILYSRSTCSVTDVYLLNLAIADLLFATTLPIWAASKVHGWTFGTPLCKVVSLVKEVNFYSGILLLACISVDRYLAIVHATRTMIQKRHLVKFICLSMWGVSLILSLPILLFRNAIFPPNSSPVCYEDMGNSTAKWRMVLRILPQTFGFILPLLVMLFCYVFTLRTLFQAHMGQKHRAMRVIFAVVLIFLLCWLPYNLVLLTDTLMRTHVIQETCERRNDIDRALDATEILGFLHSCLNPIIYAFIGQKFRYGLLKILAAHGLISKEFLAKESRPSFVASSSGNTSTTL

rCXCR2-mCherry = target: T2, rCXCR2-mCherry (rat, UniProt P35407 1-359); test: FACS on transfected U2OS cells
T2 construct: whole, on cells; Overexpressed in U2OS cells; also called CXCR2 of rat; not shown: mCherry fluorescent tag
T2 sequence (looked up): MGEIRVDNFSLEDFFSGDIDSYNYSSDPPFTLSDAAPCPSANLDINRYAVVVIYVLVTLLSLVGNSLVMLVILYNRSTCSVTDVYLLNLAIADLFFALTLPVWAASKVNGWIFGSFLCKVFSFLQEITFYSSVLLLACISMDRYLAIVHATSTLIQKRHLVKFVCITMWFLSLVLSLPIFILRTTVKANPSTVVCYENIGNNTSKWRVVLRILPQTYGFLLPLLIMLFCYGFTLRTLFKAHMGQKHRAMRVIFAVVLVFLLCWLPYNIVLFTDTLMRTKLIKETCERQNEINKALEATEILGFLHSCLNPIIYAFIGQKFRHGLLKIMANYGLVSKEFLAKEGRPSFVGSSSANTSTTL

[3] = target: T3, pepN48 (peptide of the 48 N-terminal extracellular amino acids of human CXCR2) (human, biotin labeled on its N-terminus (panning, ELISA, SPR)); test: SPR, Biacore T200; biotinylated pepN48 on SA chip;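 also: antibodies flowed in HBS-EP+ running buffer over the immobilized antigen at 0.5 to 10 nM, kinetic traces fitted to a protein-protein interaction model to derive constants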
T3 construct: Synthetic; also called N-terminus of CXCR2
T3 peptide: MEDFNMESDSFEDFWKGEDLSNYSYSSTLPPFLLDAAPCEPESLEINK

[4] = target: T3, pepN48 (peptide of the 48 N-terminal …); test: SPR
[5] = target: T4, human CXCR2 (hCXCR2) on cells (human, UniProt P25025 1-360); test: cell-based or functional assay
T4 sequence (looked up): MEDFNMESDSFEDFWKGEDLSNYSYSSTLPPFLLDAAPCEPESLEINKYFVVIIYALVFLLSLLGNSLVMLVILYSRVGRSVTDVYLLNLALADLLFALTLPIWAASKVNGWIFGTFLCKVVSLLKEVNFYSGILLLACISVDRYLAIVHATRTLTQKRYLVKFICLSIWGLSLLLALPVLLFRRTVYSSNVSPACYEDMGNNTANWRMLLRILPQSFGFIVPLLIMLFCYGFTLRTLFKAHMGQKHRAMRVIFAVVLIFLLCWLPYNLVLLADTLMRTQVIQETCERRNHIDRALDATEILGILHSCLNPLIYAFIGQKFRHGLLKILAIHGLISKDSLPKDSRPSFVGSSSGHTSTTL

hCXCR1-mCherry = target: T5, hCXCR1-mCherry (human, UniProt P25024 1-350); test: FACS on transfected U2OS cells (also immunofluorescence)
T5 construct: whole, on cells; Overexpressed in U2OS cells; not shown: mCherry fluorescent tag
T5 sequence (looked up): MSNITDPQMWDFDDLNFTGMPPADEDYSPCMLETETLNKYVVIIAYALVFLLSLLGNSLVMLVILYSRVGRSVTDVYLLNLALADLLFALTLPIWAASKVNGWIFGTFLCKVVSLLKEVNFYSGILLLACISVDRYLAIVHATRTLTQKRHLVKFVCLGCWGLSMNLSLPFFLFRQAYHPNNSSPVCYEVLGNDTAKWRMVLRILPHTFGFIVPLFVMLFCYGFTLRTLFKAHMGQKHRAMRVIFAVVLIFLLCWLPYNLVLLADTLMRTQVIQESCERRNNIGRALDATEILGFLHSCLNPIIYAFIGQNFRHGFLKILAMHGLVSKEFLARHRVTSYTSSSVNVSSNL

mCXCR2-mCherry = target: T6, mCXCR2-mCherry (mouse, UniProt P35343 1-359); test: as above
T6 construct: whole, on cells; Overexpressed in U2OS cells; also called CXCR2 of mouse; not shown: mCherry fluorescent tag
T6 sequence (looked up): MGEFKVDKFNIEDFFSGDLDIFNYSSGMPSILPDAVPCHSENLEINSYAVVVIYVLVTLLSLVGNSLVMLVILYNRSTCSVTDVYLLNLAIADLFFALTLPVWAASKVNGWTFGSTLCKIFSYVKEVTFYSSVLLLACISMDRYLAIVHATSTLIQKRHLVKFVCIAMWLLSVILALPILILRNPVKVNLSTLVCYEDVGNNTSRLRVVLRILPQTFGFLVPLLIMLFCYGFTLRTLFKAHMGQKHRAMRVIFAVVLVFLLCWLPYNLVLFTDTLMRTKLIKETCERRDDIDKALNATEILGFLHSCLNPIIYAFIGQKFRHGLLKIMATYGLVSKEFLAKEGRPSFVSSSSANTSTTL

Kd [1]: 2.6 nM | percent of cells in quadrant Q1-UR (FITC-A high and ECD-A high) [2]: 46.2%
B1: H8 (abN48) scFv combinatorial antibody (scFv, part only; not given: linker, domain order, IgG1 Fc, V domains shown, not shown: another chain or arm of the molecule; a dimerising Fc or GST; small tags and cut ends)
VH: QVQLVQSGAEVKKPGSSVKVSCKASGGTLSSYAISWVRQAPGQGPEWMGWINPNSGGTNYAQKFQGRVTMTRDTSISTAYMELSRLRPDDTAVYYCASGYCSSTSCYDYWGQGTLVTVSS
VL: QAVLTQPSSLSASPGASVSLTCTLRSGINVGAYRIYWYQQKPGSPPQFLLRYKSDSDKQQGSGVPSRFSGSRDASANAGILLISGLRSEDEADYYCAIWHSSAWVFGGGTQLTVL

binding result (rbCXCR2-mCherry): no binding (tested: 2 µg/mL) | binding result (rCXCR2-mCherry): no binding (tested: 2 µg/mL) | Kd [3]: 0.0072 nM | fold improvement of KD against abN48-IgG1 [4]: 100 fold | inhibition of GROα-induced (EC80) β-arrestin recruitment, Tango assay, apparent IC50 [5]: 0.37 nM | inhibition of GROα-induced (EC90) Ca2+ influx, FLIPR, IC50 [5]: 110 nM | inhibition of IL8-induced (EC80) β-arrestin recruitment, Tango assay, apparent IC50 [5]: 0.9 nM | inhibition of IL8-induced (EC90) Ca2+ influx, FLIPR, IC50 [5]: 44 nM | partial agonist effect on Ca2+ influx, FLIPR, apparent EC50 [5]: 310 nM | binding result (hCXCR1-mCherry): no binding (tested: 2 µg/mL) | binding result (mCXCR2-mCherry): no binding (tested: 2 µg/mL)
B2: abN48-2-IgG1 (antibody, V domains shown)
VH: B1 VH with S103R, S105R
VL: QAVLTQPSSLSASPGASVSLTCTLRSGINVGAYRIYWYQQKPGSPPQFLLRYKSDSDKQQGSGVPSRFSGSRDASANAGILLISGLRSEDEADYYCAIWHSSAWVFGGGTQLTVLG
notes: Full-length human IgG1, lambda light chain; also called ab48-2-IgG1; abN48-2-IgG2 (as misprinted)
